Measured values as given in patent publication US20260055186A1 (REPERTOIRE IMMUNE MEDICINES, published 2026).

Target: T1, mouse CD8 on mouse cells (mouse, UniProt P01731 28-247)
T1 construct: whole, on cells; also called mCD8
Test: flow cytometry of peripheral blood, B16-F10-bearing mice, 4 days after the first dose (in vivo)
Protocol: Mice were injected weekly for a total of 4 doses, at a dose equivalent to 10 μg of recombinant IL12. Tumor volume was measured twice per week, and mice were euthanized if tumor volume exceeded 2000 mm³. […] Specifically, in the MC38 model, treatment with the CD8IgG-IL12 (LC) Clone 2 construct controlled tumor growth up to day 21 and yielded 3/8 complete responders, whereas treatment with the CD8IgG-IL12 (1× HC) construct controlled tumor growth for the entire duration of the study and yielded 7/8 complete responders (FIGS. 6A-6C). In the B16-F10 model, which is typically less responsive to immunotherapy, both constructs limited tumor growth for up to 14 days after the initial dose (FIGS. 7A-7C).
In the same study, the two anti-CD8:IL-12 fusion constructs were also evaluated for their ability to be retained in tissues. Peripheral blood cells were collected from MC38 and B16-F10 tumor-bearing mice 4 days after administration of the first dose of the IL-12 construct. Samples were analyzed by flow cytometry. In the case of the MC38 tumor-bearing mice, IL-12 was detected on the surface of CD8+ T cells 4 days post-treatment with either of the two anti-CD8:IL-12 fusion protein constructs, but not on the surface of CD4+ T cells or NK cells (FIG. 8A). […]

T1 sequence (P01731 28-247): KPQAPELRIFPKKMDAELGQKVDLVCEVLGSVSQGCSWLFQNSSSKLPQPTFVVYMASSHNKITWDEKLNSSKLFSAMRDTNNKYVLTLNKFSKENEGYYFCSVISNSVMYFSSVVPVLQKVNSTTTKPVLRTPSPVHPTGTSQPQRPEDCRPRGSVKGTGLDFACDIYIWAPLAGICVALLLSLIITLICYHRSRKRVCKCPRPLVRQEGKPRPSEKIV

B1: rIL-12 (ligand)
alpha: RVIPVSGPARCLSQSRNLLKTTDDMVKTAREKLKHYSCTAEDIDHEDITRDQTSTLKTCLPLELHKNESCLATRETSSTTRGSCLPPQKTSLMMTLCLGSIYEDLKMYQTEFQAINAALQNHNHQQIILDKGMLVAIDELMQSLNHNGETLRQKPPVGEADPYRVKMKLCILLHAFSTRVVTINRVMGYLSSA
beta: MWELEKDVYVVEVDWTPDAPGETVNLTCDTPEEDDITWTSDQRHGVIGSGKTLTITVKEFLDAGQYTCHKGGETLSHSHLLLHKKENGIWSTEILKNFKNKTFLKCEAPNYSGRFTCSWLVQRNMDLKFNIKSSSSSPDSRAVTCGMASLSAEKVTLDQRDYEKYSVSCQEDVTCPTAEETLPIELALEARQQNKYENYSTSFFIRDIIKPDPPKNLQMKPLKNSQVEVSWEYPDSWSTPHSYFSLKFFVRIQRKKEKMKETEEGCNQKGAFLVEKTSTEVQCKGGNVCVQAQDRYYNSSCSKWACVPCRVRS
notes: untargeted control; also called rmIL-12; non-targeted recombinant mouse IL-12; copies: 1 + 1
binding result: no binding (tested: dose equivalent to 10 µg IL-12, i.v.)
